From PMC8882475

Legend:
Test in all cases: BLI
[1] = target: biotinylated SARS-CoV-2 S protein RBD, Beta variant (K417N, E484K, N501Y) (SARS-CoV-2) (UniProt P0DTC2)
[2] = target: SI–F019, huACE2 (18–615) - IgG1 Fc null (human) (UniProt Q9BYF1)
Bamlanivimab = target: Bamlanivimab
[3] = target: SARS-CoV-2 RBD, Beta (K417N, E484K, N501Y) (SARS-CoV-2) (UniProt P0DTC2)
[4] = target: SARS-CoV-2 RBD, Alpha (N501Y) (SARS-CoV-2) (UniProt P0DTC2)
[5] = target: SARS-CoV-2 RBD, Delta (L452R, T478K) (SARS-CoV-2) (UniProt P0DTC2)
[6] = target: SARS-CoV-2 RBD, Kappa (L452R, E484Q) (SARS-CoV-2) (UniProt P0DTC2)
[7] = target: SARS-CoV-2 spike trimer, full-length extracellular domain (ECD), His tagged (SARS-CoV-2) (UniProt P0DTC2)
[8] = target: SARS-CoV-2 RBD, Gamma (K417T, E484K, N501Y) (SARS-CoV-2) (UniProt P0DTC2)
[9] = target: SARS-CoV-2 S1 protein (SARS-CoV-2)
[10] = target: SARS-CoV-2 RBD, Lambda (L452Q, F490S) (SARS-CoV-2) (UniProt P0DTC2)
[11] = target: SARS-CoV-2 RBD (original, WT) (SARS-CoV-2) (UniProt P0DTC2)

Imdevimab (antibody)
Kd [1]: < 0.001 nM

SARS-CoV-2 RBD, Delta (L452R, T478K) (from UniProt P0DTC2) (domain or fragment)
Kd [2]: 7.26 nM

SARS-CoV-2 RBD, Lambda (L452Q, F490S) (from UniProt P0DTC2) (domain or fragment)
Kd [2]: 13.5 nM

SARS-CoV-2 S1 protein (domain or fragment)
Kd [2]: 14.7 nM | koff [2]: 0.00493 s⁻¹ | kon [2]: 337000 M⁻¹ s⁻¹

SARS-CoV-2 S protein RBD, Delta variant (L452R, T478K) (from UniProt P0DTC2) (domain or fragment)
Kd (Bamlanivimab): 3.61 nM

SI–F019, huACE2 (18–615) - IgG1 Fc null (from UniProt Q9BYF1-1 18-615) (Fc fusion)
Kd [3]: 0.0635 nM | Kd [4]: 0.019 nM | Kd [5]: 0.0141 nM | Kd [6]: < 0.001 nM | Kd [7]: 0.18 nM | Kd [8]: 0.0623 nM | Kd [9]: 0.29 nM | Kd [10]: 0.0892 nM | Kd [11]: 0.114 nM

Tixagevimab (antibody)
Kd [1]: < 0.001 nM
